Test results as given in patent publication US20250313621A1.

Experiments:
[1] = molecular target: Wildtype human PAR2 expressed on cells (human) (UniProt P55085); test: flow cytometry on HEK293F-humanPAR2 (3.0E+06 cells/mL, w/ NaN3), overnight at about 5 C, S/BG
[2] = molecular target: Cynomolgus PAR2 on BacMam-infected HEK293 cells (cynomolgus); test: flow cytometry on HEK293F-cynoPAR2 (3.0E+06 cells/mL, w/ NaN3), overnight at about 5 C, S/BG [continued]
[3] = molecular target: Wildtype human PAR2 expressed on cells (human) (UniProt P55085); test: cell-based or functional assay

Wildtype human PAR2 expressed on cells (human), sequence (P55085 37-397 limits assumed): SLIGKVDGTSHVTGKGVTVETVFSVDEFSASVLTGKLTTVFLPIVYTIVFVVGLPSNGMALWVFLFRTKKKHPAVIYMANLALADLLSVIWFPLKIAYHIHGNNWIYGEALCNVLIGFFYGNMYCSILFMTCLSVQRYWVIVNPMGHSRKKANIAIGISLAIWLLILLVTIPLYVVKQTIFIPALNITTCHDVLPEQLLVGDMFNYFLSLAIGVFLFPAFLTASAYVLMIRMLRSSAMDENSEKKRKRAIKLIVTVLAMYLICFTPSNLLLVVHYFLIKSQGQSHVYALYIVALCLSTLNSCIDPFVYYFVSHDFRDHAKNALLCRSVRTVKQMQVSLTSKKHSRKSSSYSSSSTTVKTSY

| EC50 (read off the curve) [1] | EC50 (read off the curve) [2] | % Max Inhibition, PAR1 peptide SFLLR-NH2 challenge, IP-One [3] | Binder |
| --- | --- | --- | --- |
| 1 nM | 1 nM |  | Benchmark 4 IgG (antibody, from another filing, V domains shown) VH: EVQLVQSGAEVKKPGESLKISCKGSGYNFISHWIGWVRQMPGKGLEWMGMIYPGDSDTRYSPSFQGQVTISADKSINTAYLQWRSLKASDTAMYFCARHGGITGTTFYYDFGMDVWGQGTTVTVSS VL: SYELTQPPSVSVSPGQTARITCSGDALPKQYASWYQQKPGQAPLLVIYRDSERPSGLPERFSGSSSGTTVTLTISGVQAEDEADYYCQSADSGGSYVFGTGTKVTVL |
|  |  | 3% | Benchmark 2 (antibody, from another filing, V domains shown) VH: EVQLLESGGGLVQPGGSLRLSCAASGFTFSSYAMNWVRQAPGKGLEWVSTISYHGSHISYHDSVHHRFTISRDNSKNTLYLQMNSLRAEDTAVYYCARIHHDPMDVWGQGTLVTVSS VL: SIELTQPPSVSVSPGQTASITCSGDNLGKKYVQWYQQKPGQSPVLVIYDDSNRPSGIPERFSGSNSGNTATLTISGTQAMDEADYYCQTWDGNPTTGETNVFGGGTKLTVL |
| 1 nM | 2 nM |  | Benchmark 3 IgG (antibody, from another filing, V domains shown) VH: QVQLVESGGGVVQPGRSLRLSCVASGFTFSRYGIHWVRQAPGKGLEWVIVISYDGINKYYADSVKGRFTISRDNSKNTVYLQMNSLRAEDTAVYYCAKGDFWSGYFDYWGQGTLVTVSS VL: DIVMTQTPLSSPVTLGQPASISCRSSQSLVHSDGNTYLSWLHQRPGQPPRLLIYKISNRFSGVPDRFSGSGAGTDFTLQISRVEAEDVGIYYCMQATQFPTFGGGTKVEIK |
